Data on 2 molecules can be found in article PMC7319273 (2020).

This assay addresses SARS-CoV-2 Spike protein extracellular domain (S-ECD), as used in ELISA and BLI (SARS-CoV-2, UniProt P0DTC2 14-1208). In words: BLI. Background: Biolayer interferometry detects binding as a change in optical thickness at a sensor tip.

B1: 4A8 (human monoclonal antibody) (antibody, V domains shown)
VH: EVQLVESGAEVKKPGASVKVSCKVSGYTLTELSMHWVRQAPGKGLEWMGGFDPEDGETMYAQKFQGRVTMTEDTSTDTAYMELSSLRSEDTAVYYCATSTAVAGTPDLFDYYYGMDVWGQGTTVTVSS
VL: EIVMTQSPLSSPVTLGQPASISCRSSQSLVHSDGNTYLSWLQQRPGQPPRLLIYKISNRFSGVPDRFSGSGAGTDFTLKISRVEAEDVGVYYCTQATQFPYTFGQGTKVDIK
One may read the Kd as the concentration at which binding is half-saturated. A higher Kd goes with a looser complex. For the molecule B1, the dissociation constant Kd is 0.996 nM.

B2: 2M-10B11 (human monoclonal antibody) (antibody, V domains shown)
VH: EVQLVESGGGLVQPGGSLRLSCAASGFTVSSNYMSWVRQAPGKGLEWVSVIYSGGSTYYADSVKGRFTISRDNSKNTLYLQMNSLRAEDTAVYYCARATWLRGVMDVWGQGTTVTVSS
VL: QSALTQPHSVSESPGKTVTISCTGSSGSIASNYVQWYQQRPGSAPTTVIYEDNQRPSGVPDRFSGSIDSSSNSASLTISGLKTEDEADYYCQSYDSSNHWVFGGGTKLTVL
Take B2: the Kd came out at 0.342 nM.
